Holding throughout (experiment): fluorescence polarization, 25 nM fluorescein-labelled peptide, GST fusion titrated, 22 C
For orientation: In fluorescence polarisation assays a small probe gives low polarisation when free and higher when bound to something large.

The target of assay [1] is fluorescein-labelled NIYYKV peptide.
Assay [2] addresses fluorescein-labelled NIYpYKV peptide.
In assay [3] the target is fluorescein-labelled NIpYYKV peptide.
Assay [4] concerns the target fluorescein-labelled NIpYpYKV peptide.

Chain of GST-FAP-1 PDZ5 fusion protein (P08515 whole entry, the tested form may be a part): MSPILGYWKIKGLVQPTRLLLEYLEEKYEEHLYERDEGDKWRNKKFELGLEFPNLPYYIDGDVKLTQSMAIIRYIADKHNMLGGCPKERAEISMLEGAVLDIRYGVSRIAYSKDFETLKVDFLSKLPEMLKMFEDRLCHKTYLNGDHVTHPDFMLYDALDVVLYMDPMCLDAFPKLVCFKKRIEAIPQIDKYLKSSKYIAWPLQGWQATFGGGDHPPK

As to “GST-FAP-1 PDZ5 fusion protein (from UniProt P08515 1-218)”, the dissociation constant Kd – broadly, the equilibrium constant for the complex coming apart – in assay [1] amounted to 9.9 µM; in assay [2] it was 15.4 µM; in assay [3], 6.8 µM; in assay [4] it was 8.4 µM.
“GST-FAP-1 PDZ3 fusion protein (from UniProt Q12923 1368-1452)” displayed an equilibrium dissociation constant (Kd) in assay [1] of 65 µM.

For the origin of these results see US20020147306A1, “Peptides that modulate the interaction of B class ephrins and PDZ domains” (priority 1998, published 2002).
